Patent publication WO2016171242A1 (dated 2016)

T1: human EPHB1 without signal sequence, FLAG-tagged, expressed from pFLAG-EPHB1 (human, UniProt P54762 18-984)
T1 construct: not shown: FLAG tag supplied by the vector pFLAG-GW
T1 sequence: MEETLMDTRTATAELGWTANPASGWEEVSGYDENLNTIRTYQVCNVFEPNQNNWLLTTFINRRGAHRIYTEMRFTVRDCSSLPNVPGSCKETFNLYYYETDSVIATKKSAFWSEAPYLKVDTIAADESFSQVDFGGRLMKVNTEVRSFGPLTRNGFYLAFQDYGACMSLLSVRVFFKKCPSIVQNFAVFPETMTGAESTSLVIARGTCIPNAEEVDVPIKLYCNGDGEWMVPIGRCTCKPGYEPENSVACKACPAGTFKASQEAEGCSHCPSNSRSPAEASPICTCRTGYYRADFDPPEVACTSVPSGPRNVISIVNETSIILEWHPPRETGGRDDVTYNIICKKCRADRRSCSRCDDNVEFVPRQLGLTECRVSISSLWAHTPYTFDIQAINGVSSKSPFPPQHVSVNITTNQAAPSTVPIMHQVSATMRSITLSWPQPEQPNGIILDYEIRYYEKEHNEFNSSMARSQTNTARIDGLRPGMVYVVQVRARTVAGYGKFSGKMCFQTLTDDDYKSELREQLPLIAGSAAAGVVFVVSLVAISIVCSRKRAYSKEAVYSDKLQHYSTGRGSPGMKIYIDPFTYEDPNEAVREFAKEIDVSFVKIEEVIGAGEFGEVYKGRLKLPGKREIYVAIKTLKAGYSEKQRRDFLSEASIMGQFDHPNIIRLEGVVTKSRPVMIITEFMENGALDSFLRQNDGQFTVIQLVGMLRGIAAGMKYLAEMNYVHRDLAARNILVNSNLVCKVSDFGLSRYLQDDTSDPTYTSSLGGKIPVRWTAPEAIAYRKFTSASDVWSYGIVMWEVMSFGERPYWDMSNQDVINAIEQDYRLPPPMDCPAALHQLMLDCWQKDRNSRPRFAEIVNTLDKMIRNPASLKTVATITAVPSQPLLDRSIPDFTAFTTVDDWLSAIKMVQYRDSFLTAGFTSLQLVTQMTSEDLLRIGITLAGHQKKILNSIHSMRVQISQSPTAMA

B1: mouse anti-human EPHA2 antibody A201 (antibody, V domains shown)
VH: EVQLQQSGAELVKPGASVKLSCTVSGFTFKDTYVHWVKQRPEQGLEWIGRIDPANANTKYDPKFQGKASITADTSSNTAYLQLSSLPSEDTAVYYCAAYGKSAWFAYWGQGTLVTVSA
VL: DIQMTQTTSSLSASLGDRVTISCRASQDIGNYLNWYQQKPDGTVKVLIYYTSRLHSGVPSRFSGSGSGTDYSLTISNLEQEDIATYFCQQGHSLPPTFGGGTKLEIKR
notes: Mouse monoclonal antibody purified from hybridoma supernatant, isotype IgG1; also called A201 antibody
B2: mouse anti-human EPHA2 antibody A205 (antibody, V domains shown)
VH: QIQLVQSGPELKKPGETVKISCKASGYTFTDYSMNWVKQAPGKGLKWMGWINTYTGEPTYADDFKGRFAFSLETSASTAYLQINNLKNEDTATYFCASPISLLRLLDYWGQGTTLTVSS
VL: DVVMTQTPLSLPVSLGDQASIPCRSSQSLVHSNGNTYLHWYLQKPGQSPKLLIYKVSNRFSGVPDRFSGSGSGTDFTLKISRVEAEDLGVYFCSQSTHVPWTFGGGTKLEIKR
notes: Mouse monoclonal antibody purified from hybridoma supernatant, isotype IgG2b; also called A205 antibody

Experiments:
[1] = molecular target: T1, human EPHB1 without signal sequence, …; assay: flow cytometry on 293F cells transfected with pFLAG-EPHB1
[2] = molecular target: T1, human EPHB1 without signal sequence, …; assay: flow cytometry on transfected 293F cells

Binder | binding result [1] | binding result [2]
B1 | binds | –
B2 | – | no binding
